Measurements published in patent US20240301081A1.

Biological target: rhCD45 His tag (human) (UniProt P08575)
Test: BLI (Octet HTX), compared with the parental antibody

Sequence of UniProt P08575 (P08575 26-577): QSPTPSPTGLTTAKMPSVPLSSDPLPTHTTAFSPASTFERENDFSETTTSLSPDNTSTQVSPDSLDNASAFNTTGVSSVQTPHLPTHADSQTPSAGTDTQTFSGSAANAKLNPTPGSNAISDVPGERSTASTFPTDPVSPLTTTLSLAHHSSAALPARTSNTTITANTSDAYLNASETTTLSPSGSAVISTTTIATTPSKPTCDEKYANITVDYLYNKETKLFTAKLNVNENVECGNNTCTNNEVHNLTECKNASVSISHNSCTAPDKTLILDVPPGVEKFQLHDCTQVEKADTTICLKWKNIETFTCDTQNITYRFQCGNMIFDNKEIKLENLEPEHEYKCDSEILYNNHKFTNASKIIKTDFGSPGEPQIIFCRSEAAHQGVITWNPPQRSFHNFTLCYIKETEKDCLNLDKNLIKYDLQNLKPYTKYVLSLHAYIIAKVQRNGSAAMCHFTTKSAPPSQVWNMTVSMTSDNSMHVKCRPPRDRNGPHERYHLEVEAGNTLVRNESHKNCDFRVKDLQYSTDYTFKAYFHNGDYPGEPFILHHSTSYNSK

Binder | fold change in KD relative to the parental antibody [fold]
hu CD45 HC2 + LC1 (antibody, V domains shown) VH: EVQLLESGGGLVQPGGSLRLSCAASGFDFSRYWMSWVRQAPGKGLEWVSEINPTSSTINYADSVKGRFTISRDNSKNTLYLQMNSLRAEDTAVYYCARGNYYRYGDAMDYWGQGTMVTVSS VL: DIVMTQSPDSLAVSLGERATINCKSSKSVSTSGYSYLHWYQQKPGQPPKLLIYLASNLESGVPDRFSGSGSGTDFTLTISSLQAEDVAVYYCQHSRELPFTFGQGTKLEIK | < 10
hu CD45 HC2 + LC3 (antibody, V domains shown) VH: EVQLLESGGGLVQPGGSLRLSCAASGFDFSRYWMSWVRQAPGKGLEWVSEINPTSSTINYADSVKGRFTISRDNSKNTLYLQMNSLRAEDTAVYYCARGNYYRYGDAMDYWGQGTMVTVSS VL: EIVLTQSPATLSLSPGERATLSCRASKSVSTSGYSYLHWYQQKPGQAPRLLIYLASNLATGIPARFSGSGSGTDFTLTISSLEPEDFAVYYCQHSRELPFTFGQGTKLEIK | < 10
hu CD45 HC2 + LC4 (antibody, V domains shown) VH: EVQLLESGGGLVQPGGSLRLSCAASGFDFSRYWMSWVRQAPGKGLEWVSEINPTSSTINYADSVKGRFTISRDNSKNTLYLQMNSLRAEDTAVYYCARGNYYRYGDAMDYWGQGTMVTVSS VL: DIQMTQSPSSLSASVGDRVTITCRASKSVSTSGYSYLHWYQQKPGKAPKLLIYLASNLQSGVPSRFSGSGSGTDFTLTISSLQPEDFATYYCQHSRELPFTFGQGTKLEIK | < 10
hu CD45 HC3 + LC1 (antibody, V domains shown) VH: EVQLVESGGGLVQPGGSLRLSCAASGFDFSRYWMSWVRQAPGKGLEWVAEINPTSSTINFVDSVKGRFTISRDNAKNSLYLQMNSLRAEDTAVYYCARGNYYRYGDAMDYWGQGTMVTVSS VL: DIVMTQSPDSLAVSLGERATINCKSSKSVSTSGYSYLHWYQQKPGQPPKLLIYLASNLESGVPDRFSGSGSGTDFTLTISSLQAEDVAVYYCQHSRELPFTFGQGTKLEIK | < 10
hu CD45 HC3 + LC4 (antibody, V domains shown) VH: EVQLVESGGGLVQPGGSLRLSCAASGFDFSRYWMSWVRQAPGKGLEWVAEINPTSSTINFVDSVKGRFTISRDNAKNSLYLQMNSLRAEDTAVYYCARGNYYRYGDAMDYWGQGTMVTVSS VL: DIQMTQSPSSLSASVGDRVTITCRASKSVSTSGYSYLHWYQQKPGKAPKLLIYLASNLQSGVPSRFSGSGSGTDFTLTISSLQPEDFATYYCQHSRELPFTFGQGTKLEIK | < 10
hu CD45 HC4 + LC1 (antibody, V domains shown) VH: EVQLVESGGGLVKPGGSLRLSCAASGFDFSRYWMSWVRQAPGKGLEWVSEINPTSSTINYADSVKGRFTISRDNAKNSLYLQMNSLRAEDTAVYYCARGNYYRYGDAMDYWGQGTMVTVSS VL: DIVMTQSPDSLAVSLGERATINCKSSKSVSTSGYSYLHWYQQKPGQPPKLLIYLASNLESGVPDRFSGSGSGTDFTLTISSLQAEDVAVYYCQHSRELPFTFGQGTKLEIK | < 10
hu CD45 HC4 + LC3 (antibody, V domains shown) VH: EVQLVESGGGLVKPGGSLRLSCAASGFDFSRYWMSWVRQAPGKGLEWVSEINPTSSTINYADSVKGRFTISRDNAKNSLYLQMNSLRAEDTAVYYCARGNYYRYGDAMDYWGQGTMVTVSS VL: EIVLTQSPATLSLSPGERATLSCRASKSVSTSGYSYLHWYQQKPGQAPRLLIYLASNLATGIPARFSGSGSGTDFTLTISSLEPEDFAVYYCQHSRELPFTFGQGTKLEIK | < 10
hu CD45 HC4 + LC4 (antibody, V domains shown) VH: EVQLVESGGGLVKPGGSLRLSCAASGFDFSRYWMSWVRQAPGKGLEWVSEINPTSSTINYADSVKGRFTISRDNAKNSLYLQMNSLRAEDTAVYYCARGNYYRYGDAMDYWGQGTMVTVSS VL: DIQMTQSPSSLSASVGDRVTITCRASKSVSTSGYSYLHWYQQKPGKAPKLLIYLASNLQSGVPSRFSGSGSGTDFTLTISSLQPEDFATYYCQHSRELPFTFGQGTKLEIK | < 10
